Values joined by “and” are separate entries in the source; they are usually repeats but may differ in a detail not shown here. Identical values can stand only once.
How the values were obtained:
Experiment in all cases: pull-down
[1] = target: PKC-phosphorylated GST-NR1-1a
[2] = target: PKA phosphorylated GST-NR1-1a
[3] = target: GST-NR1-1a (GST fused to the cytoplasmic tail of NR1-1a) (UniProt P35439)

importin α pulled down (immunoblot signal, a.u.) [1]: 0.378 a.u.
importin α pulled down (immunoblot signal, a.u.) [2]: 1.33 a.u.
importin α pulled down (immunoblot signal, a.u.) [3]: 0.94 a.u. and 1.43 a.u.
Substance: importin α (endogenous, rat brain) (from UniProt P83953 1-538) (natural protein)
